Laboratory results as given in publication PMC6506776.
Blank lines part the entries; values can stand above or below the substance they belong to.

What was measured:
[1] = target: cytosolic ascorbate peroxidase (cAPX), endogenous (Nicotiana tabacum (endogenous in cv. Xanthi cell suspensions)); test: native gel or EMSA
[2] = target: His-NtCDC48 recombinant protein (Nicotiana tabacum); test: SDS-PAGE and immunoblot
[3] = target: NtCDC48, endogenous (Nicotiana tabacum (endogenous in cv. Xanthi cell suspensions)); test: SDS-PAGE and immunoblot
[4] = target: CFP-NtCDC48 (Nicotiana tabacum); test: FRET or BRET

- stoichiometry N [1]: 2
Substance: cytosolic ascorbate peroxidase (cAPX), endogenous (enzyme)

- stoichiometry N [2]: 6
Substance: His-NtCDC48 recombinant protein (natural protein)

- stoichiometry N [3]: 6
Substance: NtCDC48, endogenous (natural protein)

- CFP donor fluorescence lifetime with the acceptor (2.97 ns for the donor alone) [4]: 2.41 ns
Substance: cAPX-YFP (enzyme)
